For two substances, Kd results are on record in paper PMC11891782.

What all share (assay): ELISA; dose-response: 1 μg component adsorbed; rLIC_13355 serially diluted 1:1 from 1 μg, 1 h at 37 °C; anti-His mAb detection; KD by non-linear regression, one site specific binding
One test addresses Plasma fibronectin.
Test [1] has as its target Laminin-1 from the basement membrane of Engelbreth-Holm-Swarm mouse sarcoma (mouse) (UniProt P19137).
The target of test [2] is Native plasminogen, purified.

Consider “rLIC_13355, recombinant putative lipoprotein encoded by the gene LIC_13355 of Leptospira interrogans (natural protein; other documents disagree on this pair)”, for which the Kd (usually the constant that tells how readily two partners part at equilibrium) with Plasma fibronectin turned out to be 3490 nM.
Consider “rLIC_13355, recombinant putative lipoprotein encoded by the gene LIC_13355 of Leptospira interrogans (natural protein)”, for which the Kd amounted to 18.5 nM in test [1] and 11.8 nM in test [2].
